Laboratory results published in patent US20260217833A1 (APTEVO RESEARCH AND DEVELOPMENT, published 2026).
Numbering of substitutions follows the chain as printed.

T1: Cynomolgus CHOK1SV/CD40
T1 construct: also called Cyno CD40 full-length; CD4001013
T1 receptor chain: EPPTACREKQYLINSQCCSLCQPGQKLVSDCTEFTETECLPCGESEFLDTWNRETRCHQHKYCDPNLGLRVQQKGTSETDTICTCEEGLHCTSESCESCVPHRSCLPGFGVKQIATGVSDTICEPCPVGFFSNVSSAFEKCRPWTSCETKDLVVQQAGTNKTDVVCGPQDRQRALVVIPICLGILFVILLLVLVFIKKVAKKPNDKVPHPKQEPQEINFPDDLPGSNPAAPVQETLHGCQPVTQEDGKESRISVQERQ

B1: PC401145 (bispecific antibody)
chain: DIQMTQSPSSLSASVGDRVTITCRASQDINKFLSWYQQKPGKAPKLLIHYTSSLQSGVPSRFSGSGSGTDFTLTISSLQPEDFATYYCLQYDNLYTFGQGTKLEIKGGGGSGGGGSGGGGSGGGGSEVQLVESGGGLVQPGGSLRLSCAASGFTFSDYGMAWVRQAPGKGLEWVSFITSLAYIIYYADSVKGRFTISRDNAKNSLYLQMNSLRAEDTAVYYCARNYGSSPYYFDYWGQGTLVTVSSEPKSSDKTHTCPPCPAPPAAAPSVFLFPPKPKDTLMISRTPEVTCVVVDVSHEDPEVKFNWYVDGVEVHNAKTKPREEQYNSTYRVVSVLTVLHQDWLNGKEYKCAVSNKALPAPIEKTISKAKGQPREPQVYTLPPSRDELTKNQVSLTCLVKGFYPSDIAVEWESNGQPENNYKTTPPVLDSDGSFFLYSKLTVDKSRWQQGNVFSCSVMHEALHNHYTQKSLSLSPGGGGSPSDIQMTQSPSSVSASVGDRVTITCRASQSLLFSVNQKNYLAWYQQKPGKAPKLLIYWASSLQSGVPSRFSGSGSGTDFTLTISSLQPEDFATYYCQHYYSYPWTFGCGTKVEIKGGGGSGGGGSGGGGSGGGGSQVQLVQSGAEVKKPGSSVKVSCKASGYTFSTSWIEWIRQAPGQCLEWMGSILPGSGSTNYNQKFQGRVTITADTSTSTAYMELSSLRSEDTAVYYCARGDDGSYNRWYFDHWGQGTLVTVSS
B2: PC401144 (bispecific antibody)
chain: B1 chain with L512T
B3: CD4001103 (Fc fusion)
scFv: QIVMTQSPGTLSLSPGERATMTCKSSQSLLFSVNQKNYLAWYQQKPGQAPRLLIYWASTRESGVPDRFSGSGSGTDFTLTISRLEPEDAATYYCQHYYSYPWTFGAGTKLEIKGGGGSGGGGSGGGGSGGGGSQVKLVQSGAEVKKPGASVKVSCKASGYTFSTSWIEWIRQAPGQGLEWIGEILPGSGSTNYAQKFQGRATFTADTSTSTAYMELSSLRSEDTAVYYCARGDDGSYVRWYFDVWGQGTTVTVSS
notes: As m82; not shown: the human Fc (hinge-CH2-CH3) of the scFv-hFc format
B4: PC401120 (bispecific antibody)
chain: B1 chain with N676A, N720V
notes: also called L-Gln100Cys + H-Gly44Cys
B5: PC401122 (bispecific antibody)
chain: B1 chain with C588Q, C659G, N676A
notes: also called H-Val100aAsn
B6: PC401119 (bispecific antibody)
chain: B1 chain with C588Q, C659G, N720V
notes: also called H-Ala60Asn
B7: CD4001090 (Fc fusion)
chain: EVVMTQSPDFQSVTPKEKVTITCRSSQSLVHYNGYTYLHWYQQKPDQSPKLLIYKVSNRFSGVPSRFSGSGSGTDFTLTINSLEAEDAAAYFCSQTTHVPLTFGPGTKVDIKGGGGSGGGGSGGGGSGGGGSEVQLVESGGGVVQPGRSLRLSCAASGFTFSSYAMSWVRQAPGKGLEWVASISSAGTYIYYADSVKGRFTISRDNSKNTLYLQMNGLRAEDTAVYYCARHGNGYDPLWYFDVWGQGTLVTVSS
notes: As m65; not shown: wildtype IgG1 Fc region
B8: CD4001088 (Fc fusion)
chain: B7 chain with V143L, K197Q, S207G, T210S, G217S, V225L, L249M
notes: as for B7
B9: CD4001099 (Fc fusion)
chain: B7 chain with V143L, V144E, R148G, G217S, L249T
notes: as for B7
B10: PC401124 (bispecific antibody)
chain: B1 chain with C588Q, C659G
notes: also called H-Ala60Asn + H-Val100aAsn
B11: PC401128 (bispecific antibody)
scFv-Fc-scFv chain: B1 chain with L512T, C588Q, C659G, N676A, N720V
notes: also called L-Leu30Thr
B12: PC401003 (bispecific antibody)
chain: B1 chain with C588Q, C659G, N676A, N720V
notes: also called Parent; DDG (Original)
B13: CD4001152 (Fc fusion)
scFv: B3 scFv with G9D, T10S, S12A, P15L, T22N, A89V, K136Q, I170V
notes: Humanized 1D5 scFv variant, as told of in Fc-scFv format; not shown: the human Fc and any Fc-scFv linker; neither the Fc entry nor the scFv position (N- or C-terminal) is fixed for this construct
B14: CD4001163 (Fc fusion)
scFv: QIVMTQSPDSLAVSLGERATINCKSSQSLLFSVNQKNYLAWYQQKPGQAPRLLIYWASTRESGVPDRFSGSGSGTDFTLTISRLEPEDVATYYCQHYYSYPWTFGAGTKVEIKGGGGSGGGGSGGGGSGGGGSQVQLVQSGAEVKKPGASVKVSCKASGYTFSTSWMEWVRQAPGQGLEWMGEILPGSGSTNYAQKFQGRVTMTRDTSTSTVYMELSSLRSEDTAVYYCARGDDGSYVRWYFDVWGQGTTVTVSS
notes: As m85; not shown: Fc (hinge-CH2-CH3) and any Fc-scFv linker of the tested fusion

Target: T2, human CD40 full-length (human, UniProt P25942 21-277)
T2 construct: Also used for CD40 of Daudi cells, of CD40-expressing HEK293 cells and of the BPS CD40/NFkB HEK293 reporter cells where the row says so; also called CD4001012; CHOK1SV/CD40
Experiment: flow cytometry, Daudi cells (endogenous CD40)

Binder	binding result
B1	binds
B2	binds

Target: T2, human CD40 full-length
Experiment: flow cytometry, CHOK1SV/human CD40 cells

Binder	binding result
B3	binds

Target: T3, human CD40 ECD- HAC tag (human)
T3 construct: also called CD4001006; recombinant monomeric human CD40 ectodomain (ECD)
Experiment: SPR (Biacore T200), bispecific captured on the chip, monovalent CD40 ECD injected

Binder	Kd [nM]	koff [s⁻¹]	kon [M⁻¹ s⁻¹]
B1	81	0.00061	7600
B4	74	0.00054	7200
B2	81	0.00059	7300
B5	69	0.0006	8700
B6	57	0.0004	7000

Target: T2, human CD40 full-length
Experiment: binding to cells expressing full length human- or cyno-CD40, unpurified small-scale material

Binder	binding result
B7	binds
B8	binds
B9	binds

Target: T2, human CD40 full-length
Experiment: flow cytometry, CHOK1SV/human CD40 cells
Remark: another data set of the same source

Binder	binding result
B4	binds
B10	binds
B11	binds
B5	binds
B6	binds

Target: T1, Cynomolgus CHOK1SV/CD40
Experiment: flow cytometry, CHOK1SV/cynomolgus CD40 cells

Binder	binding result
B1	binds
B2	binds

Target: T1, Cynomolgus CHOK1SV/CD40
Experiment: flow cytometry, CHOK1SV/cynomolgus CD40 cells
Remark: another data set of the same source

Binder	binding result
B12	binds
B4	binds
B10	binds
B11	binds
B5	binds
B6	binds

Target: T4, Human PD-L1 full-length (human, UniProt Q9NZQ7 19-290)
T4 construct: also called PDL01021; CHOK1SV/huPDL1
Experiment: flow cytometry, CHOK1SV/human PD-L1 cells

T4 sequence (Q9NZQ7 19-290): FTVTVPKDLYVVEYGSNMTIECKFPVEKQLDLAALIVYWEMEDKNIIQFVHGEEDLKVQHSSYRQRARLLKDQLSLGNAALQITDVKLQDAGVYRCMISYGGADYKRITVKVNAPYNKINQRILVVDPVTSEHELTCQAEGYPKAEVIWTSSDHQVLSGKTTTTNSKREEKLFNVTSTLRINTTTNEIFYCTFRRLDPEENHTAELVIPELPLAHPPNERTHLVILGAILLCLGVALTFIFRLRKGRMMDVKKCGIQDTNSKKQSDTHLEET

Binder	EC50 (read off the curve) [nM]
B12	~3
B4	~3
B5	~3
B6	~5

Target: T5, human neonatal Fc receptor (FcRn, complexed with beta-2-macroglobulin) (human, UniProt P55899 24-297; P61769 21-119)
T5 construct: also called Human FcRn/b2m
Experiment: SPR, FcRn/b2m immobilized, bispecific injected, pH 6.0, two-state reaction fit

T5 sequence (P55899 24-297 limits assumed, chain 1 of 2): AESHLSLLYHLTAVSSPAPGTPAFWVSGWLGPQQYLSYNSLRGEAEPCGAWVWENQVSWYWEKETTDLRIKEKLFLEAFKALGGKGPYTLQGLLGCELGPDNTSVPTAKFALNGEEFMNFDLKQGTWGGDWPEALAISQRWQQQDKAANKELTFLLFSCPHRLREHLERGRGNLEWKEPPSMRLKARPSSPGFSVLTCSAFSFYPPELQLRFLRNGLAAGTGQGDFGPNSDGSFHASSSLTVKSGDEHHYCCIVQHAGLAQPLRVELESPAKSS
T5 sequence (P61769 21-119 limits assumed, chain 2 of 2): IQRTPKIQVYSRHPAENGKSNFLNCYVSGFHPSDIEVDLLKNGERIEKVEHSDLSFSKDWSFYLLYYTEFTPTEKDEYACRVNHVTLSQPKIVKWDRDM

Binder	Kd [nM]
B12	121
B4	146
B10	144
B5	134
B6	122

Target: T2, human CD40 full-length
Experiment: on-cell binding

Binder	binding result
B13	no binding
B14	no binding

Target: T4, Human PD-L1 full-length
Experiment: flow cytometry, CHOK1SV/human PD-L1 cells
Remark: another data set of the same source

Binder	EC50 (read off the curve) [nM]	binding result
B12	~3	–
B1	–	binds
B10	–	binds
B2	–	binds
B11	–	binds
